Measurements from patent US20180117114A1, “PEPTIDES THAT MODULATE THE EFFECT OF THE CRMP: NEUROFIBROMIN COMPLEX ON SYNAPTIC TRANSMISSION” (Indiana University Research and Technology Coporation, priority 2015, published 2018).

What was measured:
CRMP-2 = target: T1, CRMP-2 (Mus musculus, UniProt O08553); experiment: SPOTS blot of neurofibromin C-terminus peptides overlaid with mouse brain lysate, probed with CRMP-2 antibodies; type: binding; details: 15-mers, three CRMP-2 antibodies, FIG. 4
T1 construct: overlaid with wild-type mouse brain lysate in NF1 solubilization buffer; from tissue; host or cells: wild-type mouse brain lysate
Protocol: FIG. 4 presents plot of mean binding of CRMP-2 to neurofibromin versus peptide blot position. Neurofibromin peptides (15-mers) were spotted onto a SPOTS blot membrane from amino acids 2260-2818 of […], a region where neurofibromin has been reported to bind CRMP-2. The blots were blocked, then overlaid with wild-type mouse brain lysate in NF1 solubilization buffer, washed briefly, then incubated with poly CRMP-2 (Sigma) or mono CRMP-2+poly CRMP-2 phospho Ser522 and Ser555 antibodies. The blots were scanned (Licor) and the spot intensity normalized to the maximum intensity in each series. The normalized data was then averaged and the mean+/−SEM is shown in the graph above (n=3).
Referring now to FIG. 4, peptides encompassing the C-terminus of neurofibromin were spotted with CRMP-2 and the resulting blot was probed with three different CRMP-2 antibodies. […] These peptides are: SEQ ID NO: 1, RVSHGQIKQIIRILS; SEQ ID NO: 2, KGYRHPSPAIVARTV, and SEQ ID NO: 3, YLQSFGFNGLWRFAG. In order to facilitate their entry into cells, each peptide may be fused to a portion of the cell-membrane transduction domain of the human immunodeficiency virus-type 1 (HIV-1) transactivator of transcription (TAT) protein (SEQ ID NO: 4 and/or SEQ ID NO: 6).

CaV2.2 [1] = experiment: CaV2.2 currents in transfected neurons by whole-cell voltage clamp electrophysiology; type: cell-based; details: compared to CRMP-2 neurons; 2 days post-transfection
Protocol: (§1) Recently, it was shown that CRMP-2 facilitates CaV2.2 membrane trafficking in hippocampal and sensory neurons (12, 13), the hypothesis that the CBD3 peptide would act in a dominant negative manner to inhibit this CRMP-2 mediated trafficking was tested. Plasmids containing full-length CRMP-2 or the CBD3 peptide fused to enhanced green fluorescent protein (EGFP) were transiently transfected into human embryonic kidney 293 (HEK293) cells expressing CaV2.2. […] Since CBD3 peptide expression was sufficient in preventing forward trafficking of CaV2.2, it is possible that this would result in loss of currents via these channels. To test this, neurons were transfected with full-length CRMP-2 or CBD3 peptide and measured CaV2.2 currents 2 days post-transfection using whole-cell voltage clamp electrophysiology. Expression of CBD3 reduced peak Ca^2+ current density by ˜64% compared to CRMP-2 neurons (FIGS. 2C and 2D).

CaV2.2 [2] = target: T2, CaV2.2 (Homo sapiens, UniProt Q00975); experiment: CaV2.2 surface staining in transfected HEK293 cells expressing CaV2.2; type: cell-based; details: HEK293 cells expressing CaV2.2, transiently transfected with EGFP-fused plasmids
T2 construct: expressed in transfected cells; host or cells: HEK293 cells expressing CaV2.2
T2 sequence (Q00975 whole entry, the tested form may be a part): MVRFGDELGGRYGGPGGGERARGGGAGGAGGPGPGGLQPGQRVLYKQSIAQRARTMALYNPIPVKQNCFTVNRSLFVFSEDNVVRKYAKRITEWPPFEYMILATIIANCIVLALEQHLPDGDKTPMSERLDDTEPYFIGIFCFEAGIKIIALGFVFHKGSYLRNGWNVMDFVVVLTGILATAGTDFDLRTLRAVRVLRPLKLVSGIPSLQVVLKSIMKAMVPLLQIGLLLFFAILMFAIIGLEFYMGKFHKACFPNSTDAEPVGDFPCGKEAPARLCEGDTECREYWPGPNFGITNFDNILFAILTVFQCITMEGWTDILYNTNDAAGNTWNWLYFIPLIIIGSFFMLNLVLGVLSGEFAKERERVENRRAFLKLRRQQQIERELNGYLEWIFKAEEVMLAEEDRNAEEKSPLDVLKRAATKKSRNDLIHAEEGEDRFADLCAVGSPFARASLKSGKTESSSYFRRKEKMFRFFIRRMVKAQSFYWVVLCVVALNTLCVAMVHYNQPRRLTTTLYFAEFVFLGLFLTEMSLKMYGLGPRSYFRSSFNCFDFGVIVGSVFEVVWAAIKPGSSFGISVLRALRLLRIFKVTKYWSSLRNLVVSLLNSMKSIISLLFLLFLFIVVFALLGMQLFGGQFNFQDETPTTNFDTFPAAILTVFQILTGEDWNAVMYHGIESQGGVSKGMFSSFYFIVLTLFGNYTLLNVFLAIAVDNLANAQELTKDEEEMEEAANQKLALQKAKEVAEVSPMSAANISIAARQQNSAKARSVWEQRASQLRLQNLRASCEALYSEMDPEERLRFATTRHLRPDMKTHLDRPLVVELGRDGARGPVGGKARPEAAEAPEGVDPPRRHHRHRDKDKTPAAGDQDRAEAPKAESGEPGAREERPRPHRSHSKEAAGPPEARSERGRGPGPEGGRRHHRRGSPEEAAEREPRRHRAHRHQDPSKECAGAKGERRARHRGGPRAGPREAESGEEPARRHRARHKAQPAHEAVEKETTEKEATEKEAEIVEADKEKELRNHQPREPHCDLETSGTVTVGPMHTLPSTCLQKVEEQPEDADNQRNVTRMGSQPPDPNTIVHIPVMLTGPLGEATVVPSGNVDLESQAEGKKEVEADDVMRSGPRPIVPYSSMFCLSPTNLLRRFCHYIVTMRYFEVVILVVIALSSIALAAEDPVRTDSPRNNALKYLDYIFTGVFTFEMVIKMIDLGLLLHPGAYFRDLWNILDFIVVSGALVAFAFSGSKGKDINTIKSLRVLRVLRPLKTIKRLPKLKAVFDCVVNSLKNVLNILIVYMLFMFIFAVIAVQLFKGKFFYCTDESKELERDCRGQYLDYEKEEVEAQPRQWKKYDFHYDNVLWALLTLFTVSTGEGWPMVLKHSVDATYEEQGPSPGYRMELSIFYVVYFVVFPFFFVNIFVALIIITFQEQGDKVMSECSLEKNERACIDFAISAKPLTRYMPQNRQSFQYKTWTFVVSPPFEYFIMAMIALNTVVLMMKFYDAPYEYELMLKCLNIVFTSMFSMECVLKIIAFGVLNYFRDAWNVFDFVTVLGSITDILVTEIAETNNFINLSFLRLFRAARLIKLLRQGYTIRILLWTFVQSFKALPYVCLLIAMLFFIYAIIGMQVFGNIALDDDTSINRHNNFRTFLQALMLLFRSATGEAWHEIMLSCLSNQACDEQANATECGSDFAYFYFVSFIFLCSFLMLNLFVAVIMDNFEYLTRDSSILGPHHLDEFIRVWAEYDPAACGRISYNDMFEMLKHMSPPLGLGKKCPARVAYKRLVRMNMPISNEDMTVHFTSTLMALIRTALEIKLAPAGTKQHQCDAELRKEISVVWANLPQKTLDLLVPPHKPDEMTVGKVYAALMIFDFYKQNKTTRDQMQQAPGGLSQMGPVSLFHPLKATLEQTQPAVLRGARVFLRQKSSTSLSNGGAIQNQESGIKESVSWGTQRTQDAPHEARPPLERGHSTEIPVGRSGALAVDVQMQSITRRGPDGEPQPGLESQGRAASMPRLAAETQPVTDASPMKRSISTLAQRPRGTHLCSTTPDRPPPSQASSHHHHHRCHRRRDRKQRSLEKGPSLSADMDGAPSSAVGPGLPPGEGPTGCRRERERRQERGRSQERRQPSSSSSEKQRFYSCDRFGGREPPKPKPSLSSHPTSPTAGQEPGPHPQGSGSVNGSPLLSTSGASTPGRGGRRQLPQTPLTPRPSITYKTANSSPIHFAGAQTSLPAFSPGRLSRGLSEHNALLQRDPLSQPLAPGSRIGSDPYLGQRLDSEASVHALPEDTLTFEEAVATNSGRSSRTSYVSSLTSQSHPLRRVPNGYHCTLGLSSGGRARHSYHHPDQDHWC
Protocol: as §1

Sequence | CRMP-2 binding to neurofibromin peptides (normalized spot intensity) (CRMP-2) | reduction of peak Ca^2+ current density (CaV2.2 [1]) | cells exhibiting CaV2.2 surface staining (CaV2.2 [2])
RVSHGQIKQIIRILS [SEQ ID NO: 1, a peptide encompassing a portion of the C-terminus of neurofibromin] | peaks | – | –
YLQSFGFNGLWRFAG [SEQ ID NO: 3, a peptide encompassing a portion of the C-terminus of neurofibromin] | peaks | – | –
KGYRHPSPAIVARTV [SEQ ID NO: 2, a peptide encompassing a portion of the C-terminus of neurofibromin] | peaks | – | –
DFVYKRIKARSRLAE [CBD3 peptide, a peptide derived from a portion of the CBD3 region; expressed fused to EGFP in b74] | – | ~64% | ~10%
